Measured values from patent US20170088631A1 (Hoffmann-La Roche, published 2017).
Where a chain is given by its changes, count along the chain named. Names and notes keep the numbering of the source. Blank lines part the entries; values can stand above or below the binder they belong to.

Legend:
[1] = biological target: T1, human Fibroblast Activation Protein (FAP), recombinant (human, UniProt Q12884 27-760); experiment: SPR (Biacore), His-tagged human FAP captured by anti-His antibody, antibody as analyte, 25 C; apparent bivalent affinity (avidity), 1:1 fit
T1 construct: they are treated as one molecule; also called Hu FAP; huFAP
T1 sequence (Q12884 27-760 limits assumed): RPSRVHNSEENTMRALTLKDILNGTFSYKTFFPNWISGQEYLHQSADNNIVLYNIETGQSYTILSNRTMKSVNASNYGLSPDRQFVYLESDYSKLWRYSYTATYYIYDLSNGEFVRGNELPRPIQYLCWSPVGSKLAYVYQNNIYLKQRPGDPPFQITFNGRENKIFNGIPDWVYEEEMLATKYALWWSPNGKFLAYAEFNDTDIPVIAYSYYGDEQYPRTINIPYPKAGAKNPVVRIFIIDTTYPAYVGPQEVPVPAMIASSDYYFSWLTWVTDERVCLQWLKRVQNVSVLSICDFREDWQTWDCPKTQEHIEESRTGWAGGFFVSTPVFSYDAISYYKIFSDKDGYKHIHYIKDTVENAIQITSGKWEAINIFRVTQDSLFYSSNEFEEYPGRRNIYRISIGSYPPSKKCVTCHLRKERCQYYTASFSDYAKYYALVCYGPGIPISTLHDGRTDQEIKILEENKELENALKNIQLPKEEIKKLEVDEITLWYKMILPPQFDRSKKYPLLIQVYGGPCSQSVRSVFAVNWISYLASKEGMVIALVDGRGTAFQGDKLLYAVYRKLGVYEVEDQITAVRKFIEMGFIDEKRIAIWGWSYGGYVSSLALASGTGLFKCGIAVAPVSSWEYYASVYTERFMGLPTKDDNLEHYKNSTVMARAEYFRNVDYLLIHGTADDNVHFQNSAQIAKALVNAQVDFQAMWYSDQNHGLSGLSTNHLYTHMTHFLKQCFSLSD
Experimental: The FAP binding activity of the IgG-IL-2 qm immunoconjugates based on 4G8 and 28H1 anti-FAP antibodies were determined by surface plasmon resonance (SPR) on a Biacore machine in comparison to the corresponding unmodified IgG antibodies. […] Temperature was 25° C. and HBS-EP was used as buffer. Analyte concentration was 50 nM down to 0.05 nM at a flow rate of 50 μl/min (association: 300 s, dissociation: 900 s, regeneration: 60 s with 10 mM glycine pH 2). Fitting was performed based on a 1:1 binding model, RI=0, Rmax=local (because of capture format).

[2] = biological target: T1, human Fibroblast Activation Protein …; experiment: SPR (ProteOn XPR36), GLM chip, huFAP as ligand by amine coupling (500 RU), construct as analyte, 1:1 global fit
[3] = biological target: T2, human A2 domain of Tenascin-C (TNC A2), recombinant (human, UniProt P24821 1167-1256, limits assumed, biotinylated via a C-terminal avi-tag (Example 5)); experiment: SPR (ProteOn XPR36), NLC chip, biotinylated TNC A2 as ligand (250 RU), construct as analyte, 1:1 global fit; human TNC A2 as ligand
T2 construct: domain: A2 domain of Tenascin-C; also called human TNC A2
T2 sequence (looked up): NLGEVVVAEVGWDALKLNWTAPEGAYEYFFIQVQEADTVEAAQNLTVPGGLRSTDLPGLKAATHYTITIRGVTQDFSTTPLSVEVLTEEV

B1: 4G8 IgG (unmodified anti-FAP antibody) (antibody, V domains shown)
VH: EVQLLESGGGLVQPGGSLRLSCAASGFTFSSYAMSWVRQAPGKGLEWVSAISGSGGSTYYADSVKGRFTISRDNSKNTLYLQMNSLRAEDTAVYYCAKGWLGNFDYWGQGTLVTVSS
VL: EIVLTQSPGTLSLSPGERATLSCRASQSVSRSYLAWYQQKPGQAPRLLIIGASTRATGIPDRFSGSGSGTDFTLTISRLEPEDFAVYYCQQGQVIPPTFGQGTKVEIK
Kd [1]: 0.05 nM

B2: 28H1 IgG (unmodified anti-FAP antibody) (antibody, V domains shown)
VH: EVQLLESGGGLVQPGGSLRLSCAASGFTFSSHAMSWVRQAPGKGLEWVSAIWASGEQYYADSVKGRFTISRDNSKNTLYLQMNSLRAEDTAVYYCAKGWLGNFDYWGQGTLVTVSS
VL: B1 VL
notes: Corresponding unmodified IgG of the 28H1 immunoconjugate
Kd [1]: 0.2 nM

Results, then the binder that gave them:

Kd [2]: 0.026 nM
koff [2]: 1.75e-05 s⁻¹
kon [2]: 668000 M⁻¹ s⁻¹
B3: FAP-targeted 4G8-based IgG-IL-10 immunoconjugate with monomeric IL-10 (IL-10M1) (other)
heavy 1: not shown
heavy 2: not shown
light: EVQLLESGGGLVQPGGSLRLSCAASGFTFSRYGMSWVRQAPGKGLEWVSAISGSGGSTYYADSVKGRFTISRDNSKNTLYLQMNSLRAEDTAVYYCAKAHNAFDYWGQGTLVTVSSASTKGPSVFPLAPSSKSTSGGTAALGCLVKDYFPEPVTVSWNSGALTSGVHTFPAVLQSSGLYSLSSVVTVPSSSLGTQTYICNVNHKPSNTKVDKKVEPKSCDSSSSGSSSSGSSSSGAPASSSTKKTQLQLEHLLLDLQMILNGINNYKNPKLTRMLTAKFAMPKKATELKHLQCLEEELKPLEEVLNGAQSKNFHLRPRDLISNINVIVLELKGSETTFMCEYADETATIVEFLNRWITFAQSIISTLTSGGGGSGGGGSGGGGEVQLLESGGGLVQPGGSLRLSCAASGFTFSRYGMSWVRQAPGKGLEWVSAISGSGGSTYYADSVKGRFTISRDNSKNTLYLQMNSLRAEDTAVYYCAKAHNAFDYWGQGTLVTVSSASTKGPSVFPLAPSSKSTSGGTAALGCLVKDYFPEPVTVSWNSGALTSGVHTFPAVLQSSGLYSLSSVVTVPSSSLGTQTYICNVNHKPSNTKVDKKVEPKSCD
notes: P329G LALA in the Fc; also called 4G8 IgG-IL-10M1; FAP 4G8 IgG-IL-10M1

Kd [3]: 0.052 nM
koff [3]: 9.35e-05 s⁻¹
kon [3]: 1.8e+06 M⁻¹ s⁻¹
B4: TNC A2-targeted 2B10-based IgG-IL-10 immunoconjugate with monomeric IL-10 (IL-10M1) (other)
heavy 1: EIVLTQSPGTLSLSPGERATLSCRASQSVSRSYLAWYQQKPGQAPRLLIIGASTRATGIPDRFSGSGSGTDFTLTISRLEPEDFAVYYCQQGQVIPPTFGQGTKVEIKRTVAAPSVFIFPPSDEQLKSGTASVVCLLNNFYPREAKVQWKVDNALQSGNSQESVTEQDSKDSTYSLSSTLTLSKADYEKHKVYACEVTHQGLSSPVTKSFNRGEC
heavy 2: B4 heavy 1 with R31S, I50Y, T54S, V94Y, I95T
light: B4 heavy 1 with R31S, S32N, I50Y, S53Y, T54I
notes: P329G LALA in the Fc; also called 2B10 IgG-IL-10M1; TNCA2 2B10 IgG-IL-10M1
